Broadly, the kcat is the maximal rate divided by the concentration of active sites. As usually defined, the kcat/Km is the second-order rate constant that governs catalysis at low substrate concentration.

The values below come from article PMC3680461, “Diversity of Plant Methionine Sulfoxide Reductases B and Evolution of a Form Specific for Free Methionine Sulfoxide” (PLoS ONE, 2013).

One series has as its target T1, GmMSRB4 (Glycine max, UniProt I1ME37).
T1 construct: gene LOC100784622; without predicted N-terminal chloroplast signal peptide (predicted TP length 67), pET21b His-tag, E. coli BL21(DE3), purified
T1 sequence (I1ME37 68-204): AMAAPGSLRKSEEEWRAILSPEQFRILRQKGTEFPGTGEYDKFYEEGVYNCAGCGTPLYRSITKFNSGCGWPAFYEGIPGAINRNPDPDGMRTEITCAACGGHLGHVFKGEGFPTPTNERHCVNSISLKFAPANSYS
Briefly: NADPH consumption, TRX-coupled. It is filed as biochemical. Particulars: 25 µM yeast TRX2, 2 µM TRX reductase, 200 µM NADPH; S/R mixture used, Km given as half of measured value; read-out: Free L-MetO / Km (μM)^c. From the text: (§1) NADPH consumption, TRX-coupled on GmMSRB4

The target in series [1] is T2, GmMSRB2 (Glycine max, UniProt C6SXW1).
T2 construct: full-length, pDEST17 His-tag, E. coli BL21(DE3), purified; cytosolic (no signal peptide predicted)
T2 sequence (C6SXW1 1-138): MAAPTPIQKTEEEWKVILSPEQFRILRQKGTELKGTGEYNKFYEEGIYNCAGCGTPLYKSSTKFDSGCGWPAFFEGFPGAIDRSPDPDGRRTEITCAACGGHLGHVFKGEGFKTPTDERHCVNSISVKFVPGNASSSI
As to the kind of experiment: NADPH consumption, TRX-coupled. It is filed as biochemical. As to conditions: 25 µM yeast TRX2, 2 µM TRX reductase, 200 µM NADPH; S/R mixture used, Km given as half of measured value; read-out: Free L-MetO / Km (μM)^c. From the text:
(§2) NADPH consumption, TRX-coupled on GmMSRB2

Another series addresses T3, GmMSRB1 (Glycine max, UniProt C6TFD8).
T3 construct: without predicted N-terminal chloroplast signal peptide (predicted TP length 45), pET21b His-tag, E. coli BL21(DE3), purified
T3 sequence (C6TFD8 46-202): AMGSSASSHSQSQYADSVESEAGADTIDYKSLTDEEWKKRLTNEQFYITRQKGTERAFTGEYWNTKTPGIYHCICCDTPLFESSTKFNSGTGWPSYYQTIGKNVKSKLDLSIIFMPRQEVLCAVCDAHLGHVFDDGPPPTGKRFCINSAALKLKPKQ
Briefly: DTT-dependent MSR activity. It is filed as biochemical. As to conditions: DTT as reductant.

Series [2] addresses T4, GmMSRB2 (Glycine max, UniProt C6SXW1, C68S).
T4 construct: full-length, pDEST17 His-tag, E. coli BL21(DE3), purified; cytosolic (no signal peptide predicted)
T4 sequence (C6SXW1 1-138 C68S): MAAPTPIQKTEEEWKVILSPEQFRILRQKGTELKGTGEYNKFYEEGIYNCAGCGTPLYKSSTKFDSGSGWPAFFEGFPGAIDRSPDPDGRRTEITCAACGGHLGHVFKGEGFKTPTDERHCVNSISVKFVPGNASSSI
As to the kind of experiment: DTT-dependent MSR activity. The series is classed as biochemical. Particulars: DTT as reductant.

Substrate in series [3]: CC(=O)N[C@@H](CC[S+](C)[O-])C(=O)O
Briefly: NADPH consumption, TRX-coupled. It is filed as biochemical, Glycine max. As to conditions: 25 µM yeast TRX2, 2 µM TRX reductase, 200 µM NADPH.
Description: as §1

Substrate in series [4]: CC(=O)N[C@@H](CC[S+](C)[O-])C(=O)O
Briefly: NADPH consumption, TRX-coupled. It is filed as biochemical, Glycine max. As to conditions: 25 µM yeast TRX2, 2 µM TRX reductase, 200 µM NADPH.
Description: as §2
This is another data set of the same source.

As for Free L-MetO, the Km at GmMSRB4 came to 1450 µM; on GmMSRB2 [1], 2090 µM.

On to `CN(C)c1ccc(/N=N/c2ccc(S(=O)(=O)N[C@@H](CC[S@@+](C)[O-])C(=O)O)cc2)cc1` [dabsyl-MetO], for which the “DTT-dependent MSR activity” value on GmMSRB1 is “GmMSRB1 was two-fold more efficient than GmMSRB2 or GmMSRB4 in reducing dabsylated Met-R-O”; on GmMSRB2 [2], “the C68S GmMSRB2 mutant was active towards both protein-based and free MetO”.

B1: GmMSRB4 (Glycine max) (protein)
chain: AMAAPGSLRKSEEEWRAILSPEQFRILRQKGTEFPGTGEYDKFYEEGVYNCAGCGTPLYRSITKFNSGCGWPAFYEGIPGAINRNPDPDGMRTEITCAACGGHLGHVFKGEGFPTPTNERHCVNSISLKFAPANSYS
notes: without predicted N-terminal chloroplast signal peptide (predicted TP length 67), pET21b His-tag, E. coli BL21(DE3), purified
Take B1: in series [3], the Km turned out to be 49 ± 6 µM, the kcat was found to be 0.24 ± 0.01 s⁻¹ and the kcat/Km is 5000 M⁻¹ s⁻¹.

B2: GmMSRB2 (Glycine max) (protein)
chain: MAAPTPIQKTEEEWKVILSPEQFRILRQKGTELKGTGEYNKFYEEGIYNCAGCGTPLYKSSTKFDSGCGWPAFFEGFPGAIDRSPDPDGRRTEITCAACGGHLGHVFKGEGFKTPTDERHCVNSISVKFVPGNASSSI
notes: full-length, pDEST17 His-tag, E. coli BL21(DE3), purified; cytosolic (no signal peptide predicted)
B2: in series [4], the Km was 49 ± 5 µM, the kcat turned out to be 2.04 ± 0.06 s⁻¹ and the kcat/Km amounted to 42000 M⁻¹ s⁻¹.
